Measured values reported in patent US20210206861A1.

Tests used:
IL-4R-ECD-FLAG (human) [1] = target: IL-4R-ECD-FLAG (human) (UniProt P24394); assay: ELISA on coated IL-4R-ECD-FLAG (100 ng/ml), HRP goat anti-human secondary
IL-4R-ECD-FLAG (human) [2] = target: IL-4R-ECD-FLAG (human) (UniProt P24394); assay: SPR, Biacore T200; antibody captured on Protein A/G CM5 chip, IL-4R-ECD-FLAG injected
[3] = target: Biotinated IL-4R-ECD-hFc (human) (UniProt P24394); assay: blocking ELISA: coated IL-4-hFc (2000 ng/ml), biotinylated IL-4R-ECD-hFc (100 ng/ml) with antibody in dilution series, Streptavidin-HRP

B1: Dupilumab (antibody, INN chains, looked up, V domains shown)
VH: EVQLVESGGGLEQPGGSLRLSCAGSGFTFRDYAMTWVRQAPGKGLEWVSSISGSGGNTYYADSVKGRFTISRDNSKNTLYLQMNSLRAEDTAVYYCAKDRLSITIRPRYYGLDVWGQGTTVTVSS
VL: DIVMTQSPLSLPVTPGEPASISCRSSQSLLYSIGYNYLDWYLQKSGQSPQLLIYLGSNRASGVPDRFSGSGSGTDFTLKISRVEAEDVGFYYCMQALQTPYTFGQGTKLEIKR
B1 gave an EC50 (IL-4R-ECD-FLAG (human) [1]) of 0.0125 µg/mL, a Kd (IL-4R-ECD-FLAG (human) [2]) of 0.671 nM and a koff (IL-4R-ECD-FLAG (human) [2]) of 3.95e-05 s⁻¹. It also gave a kon (IL-4R-ECD-FLAG (human) [2]) of 58800 M⁻¹ s⁻¹ and an IC50 [3] of 0.138 µg/mL.
